Data on 1 molecule can be found in US20210214414A1 (Pfizer, published 2021).

Experiment [1] concerns the target T1, Human SLIT2-N (human, UniProt O94813 31-1121, limits assumed).
T1 construct: domain: SLIT2-N (N terminal fragment); Soluble analyte in SPR, d2-labelled in HTRF, overexpressed on HEK293 cells in flow cytometry; also called human SLIT2-N (N terminal fragment)
T1 sequence (looked up): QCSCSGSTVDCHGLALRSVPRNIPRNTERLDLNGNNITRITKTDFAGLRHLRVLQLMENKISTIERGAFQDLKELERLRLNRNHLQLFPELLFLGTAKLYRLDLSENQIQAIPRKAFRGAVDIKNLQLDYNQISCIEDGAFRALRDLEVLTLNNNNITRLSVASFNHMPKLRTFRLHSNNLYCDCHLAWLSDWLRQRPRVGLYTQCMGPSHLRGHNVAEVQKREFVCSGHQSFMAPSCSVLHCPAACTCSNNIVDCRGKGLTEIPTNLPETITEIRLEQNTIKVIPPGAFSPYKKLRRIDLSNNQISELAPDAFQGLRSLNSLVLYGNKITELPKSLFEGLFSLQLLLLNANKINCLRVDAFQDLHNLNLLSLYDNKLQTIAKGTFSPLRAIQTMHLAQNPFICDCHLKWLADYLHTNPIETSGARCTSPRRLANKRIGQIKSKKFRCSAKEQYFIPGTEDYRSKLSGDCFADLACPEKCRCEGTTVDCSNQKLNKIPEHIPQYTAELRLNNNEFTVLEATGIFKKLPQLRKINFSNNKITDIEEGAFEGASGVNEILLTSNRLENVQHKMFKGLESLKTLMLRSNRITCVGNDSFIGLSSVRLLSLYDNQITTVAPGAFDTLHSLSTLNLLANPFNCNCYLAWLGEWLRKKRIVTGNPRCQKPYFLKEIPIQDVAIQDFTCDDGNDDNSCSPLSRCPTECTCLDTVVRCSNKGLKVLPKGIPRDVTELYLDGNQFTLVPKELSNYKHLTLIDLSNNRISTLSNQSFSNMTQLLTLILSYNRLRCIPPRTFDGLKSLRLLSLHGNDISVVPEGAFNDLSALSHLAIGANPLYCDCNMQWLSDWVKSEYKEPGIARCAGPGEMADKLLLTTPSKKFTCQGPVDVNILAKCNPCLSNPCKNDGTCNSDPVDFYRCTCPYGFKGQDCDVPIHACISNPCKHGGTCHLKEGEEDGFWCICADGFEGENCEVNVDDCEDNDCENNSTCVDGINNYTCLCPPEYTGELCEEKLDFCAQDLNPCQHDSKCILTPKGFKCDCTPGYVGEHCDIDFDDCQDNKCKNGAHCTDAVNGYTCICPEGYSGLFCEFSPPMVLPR
Nature of the experiment: summary of the Examples (FIGS. 11-13) against ROBO2-Fc 2.2.

In experiment [2] the target is T1, Human SLIT2-N. Nature of the experiment: flow cytometry, AF647-labelled ROBO2-Fc S17T/R73Y on HEK293 cells overexpressing human SLIT2-N (FIG. 11). How it is done: After incubation, […] FACS buffer was added per well to wash the cells. After washing, cells were resuspended in buffer for data acquisition on a Fortessa Flow Cytometer.
(Flow cytometry measures light scatter and fluorescence of single cells or particles in a stream.)

Experiment [3] has as its target T1, Human SLIT2-N. Nature of the experiment: HTRF competition: d2-labelled human SLIT2-N binding to ROBO2 on HEK293 cells (competitor: cell surface ROBO2) (FIG. 12). Here is the method: After incubation, fluorescence at 665 nm and 620 nm was measured on an Envision multilabel plate reader. The HTRF Ratio was calculated as follows: fluorescence at 665 nm/fluorescence at 620 nm×10,000.
In general terms: In TR-FRET formats the signal depends on donor and acceptor labels being close together.

B1: ROBO2-Fc S17T/R73Y (Fc fusion)
chain: SRLRQEDFPPRIVEHPTDVIVSKGEPTTLNCKAEGRPTPTIEWYKDGERVETDKDDPRSHRMLLPSGSLFFLYIVHGRRSKPDEGSYVCVARNYLGEAVSRNASLEVALLRDDFRQNPTDVVVAAGEPAILECQPPRGHPEPTIYWKKDKVRIDDKEERISIRGGKLMISNTRKSDAGMYTCVGTNMVGERDSDPAELTVFERGGSGGSEPKSSDKTHTCPPCPAPEAAGAPSVFLFPPKPKDTLMISRTPEVTCVVVDVSHEDPEVKFNWYVDGVEVHNAKTKPREEQYNSTYRVVSVLTVLHQDWLNGKEYKCKVSNKALPAPIEKTISKAKGQPREPQVYTLPPSREEMTKNQVSLTCLVKGFYPSDIAVEWESNGQPENNYKTTPPVLDSDGSFFLYSKLTVDKSRWQQGNVFSCSVMHEALHNHYTQKSLSLSPGK
notes: Labelled with Alexa Fluor 647 in the flow cytometry assay; also called ROBO2-Fc 517T/R73Y; ROBO2-Fc S17T/R73Y-AF647
One may read the EC50 as the midpoint of the concentration-response curve. Broadly, the IC50 is the concentration at which inhibition is half-maximal. Turning to B1, the “fold increase of binding affinity to SLIT2 against SEQ ID NO: 1” value with Human SLIT2-N [1] is about 10 fold. Moreover, the EC50 with Human SLIT2-N [2] was determined as 2.5 nM. Moreover, the IC50 with Human SLIT2-N [3] was 1.4 nM.
